Experiments:
[1] = target: human C3b, P01024
[2] = target: mouse C3b/iC3b deposited from mouse serum on LPS, P01027
mouse C3b/iC3b deposited from mouse serum on LPS, P01027, sequence (P01027 25-1663): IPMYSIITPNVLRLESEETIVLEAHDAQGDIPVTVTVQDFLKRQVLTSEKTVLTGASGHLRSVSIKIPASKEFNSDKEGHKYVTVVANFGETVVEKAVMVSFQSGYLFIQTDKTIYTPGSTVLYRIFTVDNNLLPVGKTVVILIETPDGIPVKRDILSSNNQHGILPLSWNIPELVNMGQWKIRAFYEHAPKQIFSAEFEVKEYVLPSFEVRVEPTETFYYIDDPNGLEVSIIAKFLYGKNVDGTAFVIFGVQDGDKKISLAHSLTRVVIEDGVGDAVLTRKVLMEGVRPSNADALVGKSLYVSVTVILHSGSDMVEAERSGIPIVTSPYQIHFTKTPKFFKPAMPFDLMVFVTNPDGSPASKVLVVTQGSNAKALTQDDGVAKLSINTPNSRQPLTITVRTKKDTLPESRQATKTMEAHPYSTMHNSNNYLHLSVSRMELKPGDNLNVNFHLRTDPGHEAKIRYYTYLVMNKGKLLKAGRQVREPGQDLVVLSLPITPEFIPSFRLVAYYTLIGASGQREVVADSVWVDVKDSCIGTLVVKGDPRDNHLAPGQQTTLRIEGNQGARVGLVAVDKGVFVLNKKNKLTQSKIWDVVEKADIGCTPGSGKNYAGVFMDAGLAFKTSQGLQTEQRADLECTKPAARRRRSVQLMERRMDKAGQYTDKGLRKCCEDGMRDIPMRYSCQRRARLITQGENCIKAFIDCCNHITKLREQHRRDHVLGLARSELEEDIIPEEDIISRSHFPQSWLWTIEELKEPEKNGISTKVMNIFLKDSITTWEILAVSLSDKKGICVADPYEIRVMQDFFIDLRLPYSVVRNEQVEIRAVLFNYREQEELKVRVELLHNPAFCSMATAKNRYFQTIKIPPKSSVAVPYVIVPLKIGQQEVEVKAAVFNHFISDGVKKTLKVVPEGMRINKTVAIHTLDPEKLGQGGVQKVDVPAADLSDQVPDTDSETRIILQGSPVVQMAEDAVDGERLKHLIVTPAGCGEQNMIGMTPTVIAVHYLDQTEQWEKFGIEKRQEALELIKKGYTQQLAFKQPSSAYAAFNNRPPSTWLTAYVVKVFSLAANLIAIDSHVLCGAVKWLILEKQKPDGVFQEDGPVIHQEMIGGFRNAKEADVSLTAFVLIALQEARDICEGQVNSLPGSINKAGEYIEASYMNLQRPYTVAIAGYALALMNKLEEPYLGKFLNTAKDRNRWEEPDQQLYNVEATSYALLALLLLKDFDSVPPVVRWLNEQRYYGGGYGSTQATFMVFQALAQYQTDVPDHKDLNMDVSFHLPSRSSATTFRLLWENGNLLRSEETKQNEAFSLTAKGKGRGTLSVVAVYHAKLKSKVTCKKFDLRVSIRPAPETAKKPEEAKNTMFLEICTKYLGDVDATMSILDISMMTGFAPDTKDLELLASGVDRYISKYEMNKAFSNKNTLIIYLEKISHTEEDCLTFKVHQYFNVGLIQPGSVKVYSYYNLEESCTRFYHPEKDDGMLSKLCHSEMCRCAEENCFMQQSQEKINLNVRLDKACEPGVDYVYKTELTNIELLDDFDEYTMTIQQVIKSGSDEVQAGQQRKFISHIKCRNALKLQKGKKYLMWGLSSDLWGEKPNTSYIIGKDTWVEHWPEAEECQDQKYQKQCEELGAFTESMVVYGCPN

human C3b, P01024, sequence (P01024 whole entry, looked up): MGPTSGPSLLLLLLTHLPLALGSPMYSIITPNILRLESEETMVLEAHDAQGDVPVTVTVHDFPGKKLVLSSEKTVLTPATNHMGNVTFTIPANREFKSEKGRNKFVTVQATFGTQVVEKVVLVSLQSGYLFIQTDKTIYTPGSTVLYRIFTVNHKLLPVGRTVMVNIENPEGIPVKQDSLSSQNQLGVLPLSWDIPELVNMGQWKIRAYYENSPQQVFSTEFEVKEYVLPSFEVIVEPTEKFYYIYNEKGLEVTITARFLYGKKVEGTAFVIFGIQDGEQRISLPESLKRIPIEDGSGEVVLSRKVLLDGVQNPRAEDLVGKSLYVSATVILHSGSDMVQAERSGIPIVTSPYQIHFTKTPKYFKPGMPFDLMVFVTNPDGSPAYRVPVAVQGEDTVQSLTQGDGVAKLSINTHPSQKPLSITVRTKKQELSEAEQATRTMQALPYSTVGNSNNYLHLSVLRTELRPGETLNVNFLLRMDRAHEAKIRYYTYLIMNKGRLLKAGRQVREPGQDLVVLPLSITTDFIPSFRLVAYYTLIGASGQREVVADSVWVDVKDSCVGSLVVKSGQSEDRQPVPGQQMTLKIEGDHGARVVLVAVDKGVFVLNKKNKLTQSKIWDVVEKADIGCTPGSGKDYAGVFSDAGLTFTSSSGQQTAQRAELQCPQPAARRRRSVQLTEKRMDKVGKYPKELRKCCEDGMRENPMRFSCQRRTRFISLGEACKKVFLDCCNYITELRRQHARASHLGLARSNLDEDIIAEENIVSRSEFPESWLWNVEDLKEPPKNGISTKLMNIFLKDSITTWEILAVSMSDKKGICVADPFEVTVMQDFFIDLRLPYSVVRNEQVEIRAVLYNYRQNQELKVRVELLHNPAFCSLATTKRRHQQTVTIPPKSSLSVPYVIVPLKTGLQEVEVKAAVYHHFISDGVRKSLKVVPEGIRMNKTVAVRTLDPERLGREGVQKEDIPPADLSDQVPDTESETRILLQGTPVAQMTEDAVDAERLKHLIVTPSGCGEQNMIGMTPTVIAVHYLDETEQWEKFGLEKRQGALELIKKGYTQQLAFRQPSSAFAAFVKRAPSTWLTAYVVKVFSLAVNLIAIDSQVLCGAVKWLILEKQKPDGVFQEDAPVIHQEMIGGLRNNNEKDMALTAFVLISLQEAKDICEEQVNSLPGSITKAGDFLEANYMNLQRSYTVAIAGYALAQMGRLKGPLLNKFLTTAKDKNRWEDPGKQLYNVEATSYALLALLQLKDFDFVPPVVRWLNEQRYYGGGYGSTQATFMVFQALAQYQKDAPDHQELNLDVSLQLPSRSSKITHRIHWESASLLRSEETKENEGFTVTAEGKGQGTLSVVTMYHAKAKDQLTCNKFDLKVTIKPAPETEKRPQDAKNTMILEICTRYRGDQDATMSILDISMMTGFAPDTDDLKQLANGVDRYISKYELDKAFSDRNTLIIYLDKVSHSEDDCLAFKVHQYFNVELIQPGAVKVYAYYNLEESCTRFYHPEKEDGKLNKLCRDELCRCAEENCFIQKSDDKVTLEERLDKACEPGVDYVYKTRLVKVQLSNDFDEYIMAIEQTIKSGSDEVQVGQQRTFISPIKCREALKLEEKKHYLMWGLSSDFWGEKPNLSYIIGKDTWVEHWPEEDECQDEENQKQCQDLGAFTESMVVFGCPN

B1: mouse Factor I in mouse serum (protein)
chain: RSPSASDLPQEELVDQKCLLQKYTHRSCNKVFCQPWQRCIEGTCICKLPYQCPRAGTPVCAMNGRSYPTYCHQKSFECLHPEIKFSHNGTCAAEGKFNVSLIYGRTKTEGLVQVKLVDQDERMFICKNSWSMAEANVACVDLGFPLGVRDIQGSFNISGNLHINDTECLHVHCRGVETSLAECAFTKRRTELSNGLAGVVCYKQDADFPTSLSFQCVNGKHIPQEKACNGVNDCGDQSDELCCKGCRGNASLCKSGVCIPDQYKCNGEVDCITGEDESRCEEDRQQNIPKGLARSAQGEAEIETEETEMLTPGMDNERKRIKSLLPKLSCGVKRNTHTRRKRVIGGKPANVGDYPWQVAIKDGQRITCGGIYIGGCWILTAAHCVRPSRAHSYQVWTALLDWLKPNSQLGIQTVKRVIVHEKYNGATFQNDIALIEMKMHTGKKECELPNSVPACVPWSPYLFQPNDRCIISGWGRGKDNQKVYSLRWGEVDLIGNCSQFYPDRYYEKEMQCAGTRDGSIDACKGDSGGPLVCEDINNVTYVWGIVSWGENCGKPEFPGVYTRVANYFDWISYHVGRSLVSQHNV
in vitro C3b and iC3b cleavage assay (western blot with clone 9, generation of C3dg; human Factor H as cofactor, 30 minutes) [1]: more efficiently cleaved to C3dg within the incubation period in the AAV_FI medium and AAV_FI high group
C3b/iC3b deposition on LPS-coated plate, reduction, serum of AAV high FI group [2]: by 50% in the AAV % high FI group
C3b/iC3b deposition on LPS-coated plate, reduction, serum of AAV_low FI group [2]: reduced by 11% in the AAV_low FI
C3b/iC3b deposition on LPS-coated plate, reduction, serum of AAV_medium FI group [2]: by 38% in the AAV_medium FI

Reference: patent US20240238446
